Source: IntAct's records for PubMed 17704763

B1: Adagio protein 1 (Arabidopsis thaliana (Mouse-ear cress)), Q94BT6 (parent)
chain: MEWDSGSDLSADDASSLADDEEGGLFPGGGPIPYPVGNLLHTAPCGFVVTDAVEPDQPIIYVNTVFEMVTGYRAEEVLGGNCRFLQCRGPFAKRRHPLVDSMVVSEIRKCIDEGIEFQGELLNFRKDGSPLMNRLRLTPIYGDDDTITHIIGIQFFIETDIDLGPVLGSSTKEKSIDGIYSALAAGERNVSRGMCGLFQLSDEVVSMKILSRLTPRDVASVSSVCRRLYVLTKNEDLWRRVCQNAWGSETTRVLETVPGAKRLGWGRLARELTTLEAAAWRKLSVGGSVEPSRCNFSACAVGNRVVLFGGEGVNMQPMNDTFVLDLNSDYPEWQHVKVSSPPPGRWGHTLTCVNGSNLVVFGGCGQQGLLNDVFVLNLDAKPPTWREISGLAPPLPRSWHSSCTLDGTKLIVSGGCADSGVLLSDTFLLDLSIEKPVWREIPAAWTPPSRLGHTLSVYGGRKILMFGGLAKSGPLKFRSSDVFTMDLSEEEPCWRCVTGSGMPGAGNPGGVAPPPRLDHVAVNLPGGRILIFGGSVAGLHSASQLYLLDPTEDKPTWRILNIPGRPPRFAWGHGTCVVGGTRAIVLGGQTGEEWMLSELHELSLASYLT
partner: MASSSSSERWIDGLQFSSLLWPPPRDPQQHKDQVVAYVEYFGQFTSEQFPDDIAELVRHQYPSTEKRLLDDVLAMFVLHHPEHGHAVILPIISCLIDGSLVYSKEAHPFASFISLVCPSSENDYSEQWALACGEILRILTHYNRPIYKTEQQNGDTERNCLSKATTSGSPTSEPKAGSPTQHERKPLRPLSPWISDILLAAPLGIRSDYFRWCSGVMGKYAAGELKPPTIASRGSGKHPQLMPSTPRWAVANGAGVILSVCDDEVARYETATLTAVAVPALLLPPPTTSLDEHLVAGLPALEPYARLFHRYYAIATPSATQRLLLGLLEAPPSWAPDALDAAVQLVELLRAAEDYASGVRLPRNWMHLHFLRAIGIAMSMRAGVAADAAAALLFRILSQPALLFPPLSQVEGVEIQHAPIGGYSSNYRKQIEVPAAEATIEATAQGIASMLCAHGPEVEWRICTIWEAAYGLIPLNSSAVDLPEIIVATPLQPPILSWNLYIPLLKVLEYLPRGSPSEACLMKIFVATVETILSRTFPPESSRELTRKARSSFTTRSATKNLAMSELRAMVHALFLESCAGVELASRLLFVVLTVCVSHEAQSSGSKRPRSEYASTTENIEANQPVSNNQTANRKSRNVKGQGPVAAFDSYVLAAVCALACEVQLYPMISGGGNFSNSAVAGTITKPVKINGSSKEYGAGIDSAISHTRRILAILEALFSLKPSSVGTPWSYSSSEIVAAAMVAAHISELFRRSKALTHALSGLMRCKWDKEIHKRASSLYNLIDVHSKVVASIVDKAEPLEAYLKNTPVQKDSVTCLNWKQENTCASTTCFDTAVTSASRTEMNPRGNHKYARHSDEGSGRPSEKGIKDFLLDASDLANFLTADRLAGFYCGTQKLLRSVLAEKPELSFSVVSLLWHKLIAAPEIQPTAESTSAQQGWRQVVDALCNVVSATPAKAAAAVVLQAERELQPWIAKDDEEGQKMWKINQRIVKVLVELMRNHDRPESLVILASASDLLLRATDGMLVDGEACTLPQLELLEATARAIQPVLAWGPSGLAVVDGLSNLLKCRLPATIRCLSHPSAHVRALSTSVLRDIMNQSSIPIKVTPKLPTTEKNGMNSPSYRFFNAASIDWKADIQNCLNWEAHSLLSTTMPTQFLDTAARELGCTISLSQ

Variants of: B1
Details: with gigan_arath GI

| effect of a mutation on the interaction | Variant |
| --- | --- |
| decreasing interaction strength | C82A |
| decreasing interaction strength | G119D |
| disrupting interaction strength | G46E |
